Sequences and labels used below:
B1: Fc variant L309G/Q311L/M428L (bacterial display) (other)
chain: DKTHTCPPCPAPELLGGPSVFLFPPKPKDTLMISRTPEVTCVVVDVSHEDPEVKFNWYVDGVEVHNAKTKPREEQYNSTYRVVSVLTVGHLDWLNGKEYKCKVSNKALPAPIEKTISKAKGQPREPQVYTLPPSRDELTKNQVSLTCLVKGFYPSDIAVEWESNGQPENNYKTTPPVLDSDGSFFLYSKLTVDKSRWQQGNVFSCSVLHEALHNHYTQKSLSLSPGK
notes: also called Q311L in M428L and L309G Fc variant
B2: Fc variant L309G/Q311I/M428L (bacterial display) (other)
chain: DKTHTCPPCPAPELLGGPSVFLFPPKPKDTLMISRTPEVTCVVVDVSHEDPEVKFNWYVDGVEVHNAKTKPREEQYNSTYRVVSVLTVGHIDWLNGKEYKCKVSNKALPAPIEKTISKAKGQPREPQVYTLPPSRDELTKNQVSLTCLVKGFYPSDIAVEWESNGQPENNYKTTPPVLDSDGSFFLYSKLTVDKSRWQQGNVFSCSVLHEALHNHYTQKSLSLSPGK
notes: also called Q311I in M428L and L309G Fc variant
B3: Fc variant L309G/Q311H/M428L (bacterial display) (other)
chain: DKTHTCPPCPAPELLGGPSVFLFPPKPKDTLMISRTPEVTCVVVDVSHEDPEVKFNWYVDGVEVHNAKTKPREEQYNSTYRVVSVLTVGHHDWLNGKEYKCKVSNKALPAPIEKTISKAKGQPREPQVYTLPPSRDELTKNQVSLTCLVKGFYPSDIAVEWESNGQPENNYKTTPPVLDSDGSFFLYSKLTVDKSRWQQGNVFSCSVLHEALHNHYTQKSLSLSPGK
notes: also called Q311H in M428L and L309G Fc variant
B4: Fc variant L309G/Q311A/M428L (bacterial display) (other)
chain: DKTHTCPPCPAPELLGGPSVFLFPPKPKDTLMISRTPEVTCVVVDVSHEDPEVKFNWYVDGVEVHNAKTKPREEQYNSTYRVVSVLTVGHADWLNGKEYKCKVSNKALPAPIEKTISKAKGQPREPQVYTLPPSRDELTKNQVSLTCLVKGFYPSDIAVEWESNGQPENNYKTTPPVLDSDGSFFLYSKLTVDKSRWQQGNVFSCSVLHEALHNHYTQKSLSLSPGK
notes: also called Q311A in M428L and L309G Fc variant
B5: Fc variant L309G/Q311V/M428L (bacterial display) (other)
chain: DKTHTCPPCPAPELLGGPSVFLFPPKPKDTLMISRTPEVTCVVVDVSHEDPEVKFNWYVDGVEVHNAKTKPREEQYNSTYRVVSVLTVGHVDWLNGKEYKCKVSNKALPAPIEKTISKAKGQPREPQVYTLPPSRDELTKNQVSLTCLVKGFYPSDIAVEWESNGQPENNYKTTPPVLDSDGSFFLYSKLTVDKSRWQQGNVFSCSVLHEALHNHYTQKSLSLSPGK
notes: also called Q311V in M428L and L309G Fc variant
B6: Fc variant L309G/Q311T/M428L (bacterial display) (other)
chain: DKTHTCPPCPAPELLGGPSVFLFPPKPKDTLMISRTPEVTCVVVDVSHEDPEVKFNWYVDGVEVHNAKTKPREEQYNSTYRVVSVLTVGHTDWLNGKEYKCKVSNKALPAPIEKTISKAKGQPREPQVYTLPPSRDELTKNQVSLTCLVKGFYPSDIAVEWESNGQPENNYKTTPPVLDSDGSFFLYSKLTVDKSRWQQGNVFSCSVLHEALHNHYTQKSLSLSPGK
notes: also called Q311T in M428L and L309G Fc variant
B7: Fc variant L309G/Q311Y/M428L (bacterial display) (other)
chain: DKTHTCPPCPAPELLGGPSVFLFPPKPKDTLMISRTPEVTCVVVDVSHEDPEVKFNWYVDGVEVHNAKTKPREEQYNSTYRVVSVLTVGHYDWLNGKEYKCKVSNKALPAPIEKTISKAKGQPREPQVYTLPPSRDELTKNQVSLTCLVKGFYPSDIAVEWESNGQPENNYKTTPPVLDSDGSFFLYSKLTVDKSRWQQGNVFSCSVLHEALHNHYTQKSLSLSPGK
notes: also called Q311Y in M428L and L309G Fc variant
B8: Fc variant L309G/Q311K/M428L (bacterial display) (other)
chain: DKTHTCPPCPAPELLGGPSVFLFPPKPKDTLMISRTPEVTCVVVDVSHEDPEVKFNWYVDGVEVHNAKTKPREEQYNSTYRVVSVLTVGHKDWLNGKEYKCKVSNKALPAPIEKTISKAKGQPREPQVYTLPPSRDELTKNQVSLTCLVKGFYPSDIAVEWESNGQPENNYKTTPPVLDSDGSFFLYSKLTVDKSRWQQGNVFSCSVLHEALHNHYTQKSLSLSPGK
notes: also called Q311K in M428L and L309G Fc variant
B9: Fc variant L309G/Q311W/M428L (bacterial display) (other)
chain: DKTHTCPPCPAPELLGGPSVFLFPPKPKDTLMISRTPEVTCVVVDVSHEDPEVKFNWYVDGVEVHNAKTKPREEQYNSTYRVVSVLTVGHWDWLNGKEYKCKVSNKALPAPIEKTISKAKGQPREPQVYTLPPSRDELTKNQVSLTCLVKGFYPSDIAVEWESNGQPENNYKTTPPVLDSDGSFFLYSKLTVDKSRWQQGNVFSCSVLHEALHNHYTQKSLSLSPGK
notes: also called Q311W in M428L and L309G Fc variant

The target in this test is human FcRn (probe in the FACS analysis of bacterially displayed Fc variants) (human, UniProt P55899 24-297; P61769 21-119, limits assumed). As to the kind of experiment: FACS of bacterially displayed Fc variants with human FcRn, pH 6.0.
Chain of human FcRn (probe in the FACS analysis of bacterially displayed Fc variants) (P55899 24-297 limits assumed, change not shown, chain 1 of 2): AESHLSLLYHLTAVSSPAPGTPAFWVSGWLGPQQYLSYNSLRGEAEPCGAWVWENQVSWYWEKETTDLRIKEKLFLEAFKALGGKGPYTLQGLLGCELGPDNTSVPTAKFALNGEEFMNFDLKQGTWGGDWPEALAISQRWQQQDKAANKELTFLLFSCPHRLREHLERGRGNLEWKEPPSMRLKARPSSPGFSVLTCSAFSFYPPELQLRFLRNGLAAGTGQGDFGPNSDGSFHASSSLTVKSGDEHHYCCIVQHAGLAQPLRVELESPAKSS
Chain of human FcRn (probe in the FACS analysis of bacterially displayed Fc variants) (P61769 21-119 limits assumed, change not shown, chain 2 of 2): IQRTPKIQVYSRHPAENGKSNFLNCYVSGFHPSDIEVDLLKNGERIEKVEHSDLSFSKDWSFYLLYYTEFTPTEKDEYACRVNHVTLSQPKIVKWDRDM
Turning to B1, the binding result is “binds”.

For the molecule B2, the binding result is reported as “binds”.

B3: the binding result is “binds”.

As for B4, the binding result was “binds”.

As to B5, the binding result is “binds”.

Regarding B6, the binding result is “binds”.

Regarding B7, the binding result is “binds”.

For the molecule B8, the binding result was “binds”.

In the case of B9, the binding result is recorded as “binds”.

The values above are taken from US20230072197A1 (KOREA UNIVERSITY RESEARCH AND BUSINESS FOUNDATION, published 2023).
